# According to the nanobody polyreactivity screen of Harvey et al. (2022):
# Assay: yeast display, Sf9 membrane polyspecificity reagent, FACS + sequencing; frameworks hold sequencing errors
# Summary of the method: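 In a synthetic yeast display library (Saccharomyces cerevisiae BJ5465), nanobody expression was induced with galactose for 36–48 hours. FACS gates were set low and high (top ~1%) using anti-HA fluorescence for expression and streptavidin fluorescence for binding of the Sf9 membrane reagent. Each polyreactivity label is drawn from the gate of origin.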
row,Sequence,polyreactivity (PSR sort gate)
1,QVQLVESGGGLVQAGGSLRLSCAASGSIFGYYAMGWYRQAPGKERELVAAISVSGGSTYYADSVKGRFTISRDNAKNTVYLQMNSLKPEDTAVYYCKKVQGSWRVPYYYWGQGTQVTVSS,high polyreactivity
2,QVQLVESGGGLVQAGGSLRLSCAASGSIFGYYAMGWYRQAPGKERELVAAITRSGGSTYYADSVKGRFTISRDNAKNTVYLQMNSLKPEDTAVYYCNAVRYAVRLPAFPGYDYWGQGTQVTVSS,high polyreactivity
3,QVQLVESGGGLVQAGGSLRLSCAASGSIFGYYAMGWYRQAPGKERELVAAITWNADGTYYADSVKGRFTISRDNAKNTVYLQMNSLKPEDTAVYYCAADQYYQDWGGGYDYWGQGTQVTVSS,low polyreactivity
4,QVQLVESGGGLVQAGGSLRLSCAASGSIFGYYAMGWYRQAPGKERELVAAITWSGDSTYYADSVKGRFTISRDNAKNTVYLQMNSLKPEDTAVYYCAARQFVHTRYFSFGYWGQGTQVTVSS,low polyreactivity
5,QVQLVESGGGLVQAGGSLRLSCAASGSIFGYYAMGWYRQAPGKERELVAAITYSGGNTNYADSVKGRFTISRDNAKNTVYLQMNSLKPEDTAVYYCAARKNYQAVYARRTRYYYWGQGTQVTVSS,high polyreactivity
6,QVQLVESGGGLVQAGGSLRLSCAASGSIFGYYAMGWYRQAPGKERELVARISYSGGTTYYADSVKGRFTISRDNAKNTVYLQMNSLKPEDTAVYYCNARIPYSWRYGYWGQGTQVTVSS,high polyreactivity
7,QVQLVESGGGLVQAGGSLRLSCAASGSIFGYYAMGWYRQAPGKERELVAVITRSGGSTYYADSVKGRFTISRDNAKNTVYLQMNSLKPEDTAVYYSNAKSDYGYKMYYWGQGTQVTVSS,high polyreactivity
8,QVQLVESGGGLVQAGGSLRLSCAASGSIFGYYAMGWYRQAPGKERELVAVITSSGGGTYYADSVKGRFTISRDNAKNTVYLQMNSLKPEDTAVYYCAKLGTRRYDSWGQGTQVTVSS,high polyreactivity
9,QVQLVESGGGLVQAGGSLRLSCAASGSIFGYYGMGWYRQAPGKERELVATITSGGSTNYADSVKGRFTISRDNAKNTVYLQMNSLKPEDTAVYYCARQYGYQPERYGYWGQGTQVTVSS,low polyreactivity
10,QVQLVESGGGLVQAGGSLRLSCAASGSIFGYYTMGWYRQAPGKERELVATITSGGSTYYADSVKGRFTISRDNAKNTDYLQMNSLKPEDTAVYYCNARTAQNVVLYDFGYWGQGTQVTVSS,high polyreactivity
11,QVQLVESGGGLVQAGGSLRLSCAASGSIFHAYAMGWYRQAPGKERELVAAINRGGRTNYADSVKGRFTISRDNAKNTVYLQMNSLKPEDTAVYYCAASYRWVTDKTHYYWGQGTQVTVSS,low polyreactivity
12,QVQLVESGGGLVQAGGSLRLSCAASGSIFHDNAMGWYRQAPGKERELVAAINRGGSTHYADSVKGRFTISRDNAKNTVYLQMNSLKPEDTAVYYCAADGFRPEVGYWGQGTQVTVSS,low polyreactivity
13,QVQLVESGGGLVQAGGSLRLSCAASGSIFHGNAMGWYRQAHGKERELVAVISDGGSTDYADSVKGRFTISRDNANNSVYLQMTSLKPEDTAVYYCNAAYDTQYFYRKHIYYLSGYDYWGQGTQVTVSS,low polyreactivity
14,QVQLVESGGGLVQAGGSLRLSCAASGSIFHGYAMGWYRQAPGKERELVAAISSTGGSTYYADSVKGRFTISRDNAKNTVYLQMNSLKPEDTAVYYCAAYYYVGYRARRYDYWGQGTQVTVSS,high polyreactivity
15,QVQLVESGGGLVQAGGSLRLSCAASGSIFHLYAMGWYRQAPGKERELVAAITWTGGSTYYADSVKGRFTISRDNAKNTVYLQMNSLKPEDTAVYYCAARQQVRLRPGPLYYYWGQGTQVTVSS,high polyreactivity
16,QVQLVESGGGLVQAGGSLRLSCAASGSIFHPYGMGWYRQAPGKERELVAAITSSGGDTYYADSVKGRFTFSRDIAKNTVYLQMISLKPEDTAVYYCAATGLPGYYAYDYWGQGTQVTVSS,low polyreactivity
17,QVQLVESGGGLVQAGGSLRLSCAASGSIFHPYTMGWYRQAPGKERELVAAISWSGGNTNYADSVKGRFTISRDNAKNTVYLQMNSLKPEDTAVYYCNKATNLSGGYDSWGQGTQVTVSS,low polyreactivity
18,QVQLVESGGGLVQAGGSLRLSCAASGSIFHQYVMGWYRQAPGKERELVAAISIRGTRTYYADSVKGRFTISRDNAKNTVYLQMNSLKPEDTAVYYCAVSGGRLQGDYWGQGTQVTVSS,high polyreactivity
19,QVQLVESGGGLVQAGGSLRLSCAASGSIFHSYAMGWYRQAPGKETELVASITASGDSTYYADSVKGRFTISRDNAKNTVYLQMNSLKPEDTAVYYCNTQAVYGGGEGGYDYWGQCTQVTVSS,low polyreactivity
20,QVQLVESGGGLVQAGGSLRLSCAASGSIFHVYAMGWYRQAPGKERELVAAIDRSGGSTYYADSVKGRFTISRDNAKNTVYLQMNSLKPEDTAVYYCAKDVLGGQITDGVGNDYWGQGTQVTVSS,low polyreactivity
21,QVQLVESGGGLVQAGGSLRLSCAASGSIFHWYTMGWYRQAPGKERELVATISAGGSTYYADSVKGRFKISRDNAKNTVYLQMNSLKPEDTAVYYCNRRVHGVYRWRRSDSWGQGTQVTVAS,high polyreactivity

row,Sequence,polyreactivity (PSR sort gate)
1,QVQLVESGGGLVQAGGSLRLSCAASGSIFIGNTMGWYRQAPGKERELVATIRRSGSRTYYADSVKGRFTISRDNAKNTVYLQMNSLKPEDTAVYYCAADRLRNSGYKTIYDYWGQGTQVTVSS,low polyreactivity
2,QVQLVESGGGLVQAGGSLRLSCAASGSIFIGYAMGWYRQAPGKERELVAAISWSGDSTYYADSVKGRFTISRDNAKNTVYLQMNSLKPEDTAVYYCARDKWGLRYAPTVDYWGQGTQVTVSS,high polyreactivity
3,QVQLVESGGGLVQAGGSLRLSCAASGSIFIGYGMGWYRQAPGKERELVAAITSGSITNYADSVKGRFTISRDNAKNTVYLQMNSLKPEDTAVYNCNADVNFIDDDYWGQGTQVTVSA,low polyreactivity
4,QVQLVESGGGLVQAGGSLRLSCAASGSIFIINAMVWYRQAPGKERELVAAINNGVNTYYADSVKGRFTISRDNAKNTVYLQMNSLKPEDTAGYYCAADYGDPRVNEYDYWGQGTQVTVSS,low polyreactivity
5,QVQLVESGGGLVQAGGSLRLSCAASGSIFINNMGWYRQAPGKERELVAAISNSGGRTYYADSVKGRFTISRDNAKNTVYLQMNSLKPEDTAVYYCAKKSNRLPYGYWGQGTQVTVSS,high polyreactivity
6,QVQLVESGGGLVQAGGSLRLSCAASGSIFIPNAMGWYRQAPGKERELVAAIRSGGSTYYADSVKGRFTISRDNAKNTVYLQLLSLKPEDTAVYYCAADTYTYYYYLARYYYWGQGTQVTVSS,low polyreactivity
7,QVQLVESGGGLVQAGGSLRLSCAASGSIFIQYDMGWYRQAPGKERELVATIRSCDSTTYADSVKGRFTISRDNAKNTVFLQVNSLKPEDTAVYYCAKDYRFDYDYDYWGQGTQVTVSS,low polyreactivity
8,QVQLVESGGGLVQAGGSLRLSCAASGSIFIRNAMGWYRQAPGKERELVAAITSGGNTYYADSVKGRFTISRDNAKNTVYLQMNSLKPEDTAVYYCNAGRYYRHDYWGQGTQVTVSS,low polyreactivity
9,QVQLVESGGGLVQAGGSLRLSCAASGSIFIRYAMGWYRQAPGKERELVAAITRSGGSTYYADSVKGRFTISRDNAKNTVYLQMNSLKPEDTAVYYCNVLLRRNGYFARGDYWGQGTQVTVSS,high polyreactivity
10,QVQLVESGGGLVQAGGSLRLSCAASGSIFISYAMGWYRQAPGKERELVAAISSGGSTNYADSVKGRFTISRDNAKNTVYLQMNSLKPEDTAVYYCAADGWLWSFTGDGWWFVYWGQGTQVTVSS,low polyreactivity
11,QVQLVESGGGLVQAGGSLRLSCAASGSIFISYAMGWYRQAPGKERELVAAITSGGRTNYADSVKGRFTISRDNAKNTVYLQMNSLKPEDTAVYYCAKRQSHSRKYDYWGQGTQVTVSS,low polyreactivity
12,QVQLVESGGGLVQAGGSLRLSCAASGSIFIVNVMGWYRQAPGKERELVAGITTNGGITYYADSVKGRFTISRDNAKNTVYLQMNSLKPEDTAVYYCATRSASPSSIEMDYWGQGTQVTVSS,low polyreactivity
13,QVQLVESGGGLVQAGGSLRLSCAASGSIFIWYAMGWYRQAPGKERELVATITSSGSTNYADSVKGRFTISRDNAKNTVYLQMNSLKPEDTAVYYCAKRGPLRHYSWGQGTQVTVSS,low polyreactivity
14,QVQLVESGGGLVQAGGSLRLSCAASGSIFIYNAMGWYRQAPGKERELVAAISSSGGSTYYADSVKGRFTISRDNAKNTVYLQMNSLKPVDTAVYYCAARTYYVRGLGGRPGMDYWGQGTQVTVSS,low polyreactivity
15,QVQLVESGGGLVQAGGSLRLSCAASGSIFIYYAMGWYRHAPGKERELDAAISNGGSTNYADSVKGRFTISRDNGKNTVYLQLNRLKPEDTAVYYCNARLERTPSLYLYGSWGQGTQVTVSS,low polyreactivity
16,QVQLVESGGGLVQAGGSLRLSCAASGSIFIYYAMGWYRQAPGKEREFVAAISYSDGDTYYADSVKGRFTISRDNAKNTVYLQMNSLKPEDTAVYYCAAEVPQYYDVGWEDHWGQGTQVTVSS,high polyreactivity
17,QVQLVESGGGLVQAGGSLRLSCAASGSIFIYYAMGWYRQAPGKERELVAAINTGGTTYYADSVKGRFTISRDNAKNTVYLQMNSLKPEDTAVYYCAKYIAYYGYVPSPWDHPGDDYWGQGTQVTVSS,low polyreactivity
18,QVQLVESGGGLVQAGGSLRLSCAASGSIFIYYAMGWYRQAPGKERELVAAISFSGARTYYADSVKGRFTISRDNAKNNVSLQMNSLKPEDTAVYYCNVEIGTGDYDYWGQGTQVTVSS,low polyreactivity
19,QVQLVESGGGLVQAGGSLRLSCAASGSIFKANTMGWSRQAPGKERELVAAISGSGGRTRYADSVRGRFTISRDNAKNTVYLQMNSLKPDVTAVYYCAATDRGGYYYWGQGTQVTVSS,high polyreactivity
20,QVQLVESGGGLVQAGGSLRLSCAASGSIFKAYDMGWYRPAPGKERELVAGISSSDSTYYADSVKGRFSISRDNAKNTVYLQLNSLKPEDTAVYYCAADPVFAAAYIHLYEYWGQGTQVTVSS,low polyreactivity
